Assay results: the nanobody polyreactivity screen of Harvey et al. (2022)

Experiment: yeast display, Sf9 membrane polyspecificity reagent, FACS + sequencing; frameworks hold sequencing errors
Summary of the method: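 A synthetic nanobody library was expressed on Saccharomyces cerevisiae BJ5465 by galactose induction for 36–48 hours. The library was stained for 1 hour at 4 °C with 10% biotinylated, detergent-solubilized Sf9 membrane reagent and enriched with streptavidin microbeads before FACS. Low and high (top ~1%) gates were set on anti-HA fluorescence for expression and streptavidin fluorescence for reagent binding, and each polyreactivity label reflects the gate of origin.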

Row | Sequence | polyreactivity (PSR sort gate)
1 | QVQLVKSGGGLVQAGGSLRLSCAASGRIFVGYVMGWYRQAPGKERELVAAIDSGGRTNYADSVKGRFTISRDNAKNTVYLQMNSLKPEDTAVYYCNREAAHGSLRWTEMEYWGQGTQVTVSS | low polyreactivity
2 | QVHLVESGGGLVQAGGSLRLSCAASGSIFGNNAMGWYRQAPGKERELVAAISSGGSTNYADSVKGRFTISRDNAKNTVYLQMNSLKPEDTAFYYCAKHSWSRAFSWATRLHWRYDYWGQGTQVTVSS | low polyreactivity
3 | QVQLVESGGGLVQAGGSLRLSCAASGRTFRPYAMGWYRQAPGKERELVAAITRSGGSTYYADSVKGRFTISRDNAKNTVYLQMNSLKPEDTAVYYCAAYNTYSDTYDYWGQGTQVTVSS | low polyreactivity
4 | QVQLVESGGGLVQAGGSLRLSCAATGSTFAKYAMCSYRQAPGKERELVASISGSGGSTYYADSVKGRFTISRDNAKNTFYLQMNSLIPEDTAVYYSAARRYVWYYWGQGTQVTVSW | high polyreactivity
5 | QVQLVESGGGLVQAGGSLRLSCAASGSTFYYYAMGWYRQAPGKEREFVASISSRGTSTYYADSVKGRFTISRDHAKNTVYLQMNSMKPEDTAVYYCAARGWGPTRAYDYWGQGTQVTVSS | high polyreactivity
6 | QVQLVESGGGLVQSGGSLRLSCAASGGIFRYYVMGWYRQAPGKERELVAPINSGGTTYYEDSVKGRFTISRDNAKNTVYLQMNSLKPEDTAVYFCAAYYAGFGYNYWGQGTQVTVSS | low polyreactivity
7 | QVPLVESGVGLVQAGGSLRLSCAASGYTFYSYAMGWYRQAPGKEREFVAAIRTGGGTNYADSVKGRFTISRDNAKNTVYLQMNSLKPEDTAVYYCAARYYSQKSYIGFRPGYEYWGQGTQVTVSS | low polyreactivity
8 | QVQLVESGGGLVQAGGSLRLSCAASGGTFPLYAMGWYRQAPGKARELVAAIRWSGGRTYYADSVKGRFTISRDNAMKTVYLQMNSLKPEDTAVYYCAADYDDGWGYDYWGQGTQVTVSS | high polyreactivity
9 | QVQLVESGGGLVQAGGSLRLSCAASGSTFPSNAMGWYRQAPGKERELVAAISSGGRTYYADSVKGRFTISRDNAKNTVYLQMKSLKPEDTAVYYCAADTDRRSPFDYWGQGTQVTVSS | high polyreactivity
10 | QVQLVESGGGLVQAGCSLRLSCAASGSIRGYAMGWSRQAPGKERELVASITWSGGSTYYADSVKGRFTMSRDNAKYTVYLQMHSLNPEDTAVYYCAASPSPYASVIRPYDYWGQGTQVTVSS | low polyreactivity
11 | QVPLVESGGGLVQAGGRLRISCAASGITCTFYSMGWYREAPGKESELVAAISRRGGSTYYADSVKGRFTISRDNEKNTVYLHMNSLKPEDTAVYYCAARGYRPMDYWGQGTQVTVSS | high polyreactivity
12 | QVQLVESGGGLVQAGGSLRISCAASGSTFLINAMGWYRQAPGKERELVAAIRYSGGRTYYADSVKGRFTISRDNAKNTVYLQMNSLKPEDTAVYYCNARPYRSQIGVHYDYWGQGTQVTVSS | high polyreactivity
13 | QVQLVESGGGLVQAGGSLRLSCAASGSILDRYVMGWYRQAPGNGRELVSAITWSGSRTYYADSVKGRFTISRDNAKNTVYLQMNSLKPEDTAVYYCAKVIRRSSTLGNHYYWGQGTQVTVSS | high polyreactivity
14 | QVQLVESGGGLVQAGGSLRLSCSASGSIFRYYAMGWYRQPPGKEREFVASITYRGGRTYYADSVKGRFTISRDNAKKTVYLQMNSLKPEDTAVYYCAARTRAGAWTSKYHDYWGEGTQVTVSS | high polyreactivity
15 | QVQLVESGGGLVHAGGSLRLSCAASGFIFDTYAMGWYRQAPGKERELVAAISRSGVRTYYADSVKGRFTISRDNAKNTVYLQMNILKPEDTAVYYCNAALNRYHFGRAFPGVYWGHGTQVTVSS | high polyreactivity
16 | QVQLVESAGGLVQAGGSLRLSCAASGGTFLQYAMGSYRQAPGKERELVATITLIGDSTYYADSVKGRFTISRDNAKNTVYLQMNSLIPEDTAVYYCADRPVTSYAYGSWGQGTQVTVSS | low polyreactivity
17 | QVQLVESGGGLVQAGGSLRLSCAASGSIFASNAMGWYRQAPGKERELVAAINSGDSTNYADSVKGRFTISRDNAKNTVYLQMNSLKPEDTAVYFCARGLEERYDYWGQGTQVTVSS | low polyreactivity
18 | QVQLVESGGGLVQAGGSLRLSCAASGRTFLPYAMGWYRQPPWKERELVAAISYRGVSTYYADSVKGRFTISRDNAKYSVYLQMNSLKAEDTAVYYCAARSWANYDFWGHGTQVTVSS | high polyreactivity
19 | QVQLVESGGGLVQAGGSLRLSCAASGSIFDVYAMGWYRQAPGKERELVATISNSAGSTYYADSVKGRFTISRDNAKKTVYLQMNSLKPEDTAVYYCAAVVLYFEEYDYWGQGTQVTVSS | low polyreactivity
20 | QVQLVESGGGLVQAGGSLRLSCSASGGTFEFYTMGWYRQAPGKERELVAAISWSGSSTYYADSVKGRFTISRDNAKNTVYLQMNSLKPEDTAVYYCAAYPRPYIGYTDGYVWYEFDYWGQGTQVTVSS | low polyreactivity
21 | QVQLVESGGGLVQAGGSLRLSCAASGHIFFYYTMGWYRQAPGKERELVAGITIGGSTNYADSVKGRFTISRDNAKNTVYLKMNSLKPEDTAVYYCNVVKYVYIYSYWEYYYWGQGTQVTVSS | low polyreactivity
22 | QVQLVESGGGLVQAGGSLRLSCAASGRILLTYAMGWYRPAPGKERELVAAISSDSRTYYADSVKGRFTISRDNAQNTVYLQMNSLKPEDTAVYYCVRRRYKYDYWGQGTQVTVSS | low polyreactivity

Row | Sequence | polyreactivity (PSR sort gate)
23 | QVQLVESGGGLVQAGGSLRLSCAASGSTFLKYAMGWYRQAPGKERELVAAISRSGTSTYYADSVKGRFTISRDNAKNTVYLQMNSLKPEDTAVYYCAARWIRSNTQYDYWGQGTQVTVSS | high polyreactivity
24 | QVQLVESGGGLVQAGGSLRLSCAASGIIFGRYAMGWYRQAPGKERELVAAISSRGGSTYYADSVKGRFTISRDNAKNTVYLQMNSLKPEDTAVYYCNKDDERGKLYYWGQGTQVTVSS | high polyreactivity
25 | QVQLVESGGGLVQAGGRLRVSCAASGRTFYYYGMGWYRQAPGKESELVATISWSGGSTYYADSVKGRFTISRDNAKNTVYLQMNSLKPEDTEVYYCAADGQFLYDHIEVDYWGQGTQVTVSS | low polyreactivity
26 | QVQLVESGGGLVQAGGSLRLSCASSGRIFPYYAMGRYRQAPGKERDLVAAITSVGSTNYADSVKGRFTISRDNAKNTVYLQINSLKPEDTAVYYCAAESTEGTSGDYDYWAQGTQVTVSS | low polyreactivity
27 | QVQLVESGGGLVQAGGSLRLSSAASGRNFGPYTMRWSRQAPGKERELVATISYSGSTTYYADSVKGRFTISRDNAKNTVYLQMNSLKPEDTAVYYCNAQYYVFITFDYWGQGTQVTVSS | high polyreactivity
28 | QVQLVESGGGLVQAGGSLRLSCAASGSTFRLNAMGWYRQSPGKERELVAAISRGGSTNYADSVKGRFTISRDNAKNTVYLQMNSLKPEDTAVYYCATRRSYKYYWGQGTQVTVSS | high polyreactivity
29 | QVQLVESGGGLVQAGGSLRLSCAASGIIFYVNDMGWYRQAPGKERELVADISGGTSTNYADSVKGRFTISRDNAKNTVYLQMNSLKPEDTAVYYCATAFIVPFPGSDYWGQGTQVTVSS | low polyreactivity
30 | QVQLVESCGGLVQAGGSLRLISAASGRTFGHNTMGWYRQAPGKEREYVAAIRWTAGSTYYADSVKGRFTISRDNAKNTVYLQMNSLKPEDTAVYYCAAYYVERRSYRVDRGTTLGYWGQGTQVTVSS | high polyreactivity
31 | QEQLQESGGGLVKAGGSLRLSCAASGNISNHNDMGWYRQAPGKEREFVAGITAGGITNYADSVKGRFTISRDNAKNTVYLQMNSLKPEDTAVYYCAAYPDYAKSYGYWGQGTQATVSS | low polyreactivity
32 | QVQLVESGGGLVQAGGSHRLSCAASGSIFLFNAMGWYRQAPGKERELVAAITSPTARTYYADSVKGRFTISRDIAKNTVYLQMNSLKPEDTAVYYCAARYRYAYGYGRGYSWGQGTQVTVSS | high polyreactivity
33 | QVQLVESGGGLVQAGGSLRLSCAASGFTFGPYDMGWYRQAPGTERELVAAITDSSGSTHYADSVKGRFTLSRDNAKNTFYLQMNSLKPEDTAVYYCAADVSSRTTYDYWGQGTQVTVSS | low polyreactivity
34 | QVQLVESGGGLVQAGGSLRLSCAASGIIFQGYVMGWYRQAPGKERELVAVISRTRGSTYYADSVKGRFTISRDNAKNTVYLQMNSLKPEDTAVYYCAAGTPRLRYLQGHRMNYWGQGTQVTVSS | high polyreactivity
35 | QVQLVESGGGLVQAGGSLRLSCAASGRIFFYYAMGWYRQAPGKERELVAAIRSGGSTNYADSVKGRFTISRDNAKNTVYLQMNSLKPEDTAVYYCAADPSRYYTRRYYYWGQGTQVTVSS | high polyreactivity
36 | QVQLVESGGGLVQAGGSLRLSCAASGLIFGGYAMGWYRQAPGKERELVAAIYWDDGDTYYADSVKGRFTISRDNAKNTVYLQMNSLKTEDTAVYYCNAAGALIFGEGYYVEYDYDYWGQGTQVTVSS | low polyreactivity
37 | QVQLVESGGGLVQAGGSRSLSCAASGSILWYYAMGWYRQAPGKERELVADITARGVGTYYADSVKGRFTISRDNAKNTVYLQMNSLKPEDTAVYYCNVETYSFYTLYVTYDYWGQGTQVTVSS | low polyreactivity
38 | QVQLVESGGGLVQAGGSLRLSCAASGFTFWYYAMGWYRQAPGKERELVAAITRGGNTNYADSVKGRFTISRDNAKNTVYLQMNSLKPEDTAVYYCAVRFSAPGYYYWGQGTQVTVSS | high polyreactivity
39 | QVQLVESGGGLVQAGGSLRLSCAASGRMFGAYGMGWYRQAPGKERELVAAISNGGRTSYADSVKGRFTISRDNAKNTVYLQMNSLKPEDTAVYYCAAVQLAYTYYWYNDWGQGTQVTVSS | high polyreactivity
40 | QVQLVESGGGLVQAGGSLRLSCAASGSIFVPYAMGWYRQAPGKERELDAVITSGGSTYYADSVKGRFSISRDNAKNTVYLQMNSLKPEDTAVYYCNADLYYVWSTLSQFDYWGQGTQVTVSS | low polyreactivity
41 | QVQLVESGGGLVQAGGSLRLSCAASGSTYYYYMGWYRQAPGKERELVASISYTGSRTYYADSVKGRFTISRDNAKNTVYLQMNSLKPEDTAVYYCAAARSRARSYYYWGQGTQVTVSS | high polyreactivity
42 | QDQLVESGGGLVQARGSLRLRCAASGFIFIFNAMGWYRPAPGKERELVAAIDTSDDSTYYADSVKGRFTISRDNGKNTVYLQLNSLKPEDTAVYYCAAEELSNYEYWGQGTQVTVSS | low polyreactivity
43 | QVQLVESGGGLVQAGGSLRLSCAASGRTFTQYAMGWYRQAPGKEREMVAAISWRGGSTYYADSVKGRFTISRDNAKNTVYVQMNSLKPEDTAVSYCAKRYFRGYPLYDYWGQGTQVTVSS | high polyreactivity
